Biological target: the molecule itself
Experiment: cryo-EM structure; single-particle analysis of purified NCC at 9 mg/ml in 25 mM tris (pH 8.0), 150 mM NaCl, 0.02% GDN; TMD map with C2 symmetry, overall map with C1 symmetry

B1: human sodium-chloride cotransporter NCC (natural protein, UniProt P55017-1 1-1021, looked up)
chain: MAELPTTETPGDATLCSGRFTISTLLSSDEPSPPAAYDSSHPSHLTHSSTFCMRTFGYNTIDVVPTYEHYANSTQPGEPRKVRPTLADLHSFLKEGRHLHALAFDSRPSHEMTDGLVEGEAGTSSEKNPEEPVRFGWVKGVMIRCMLNIWGVILYLRLPWITAQAGIVLTWIIILLSVTVTSITGLSISAISTNGKVKSGGTYFLISRSLGPELGGSIGLIFAFANAVGVAMHTVGFAETVRDLLQEYGAPIVDPINDIRIIGVVSVTVLLAISLAGMEWESKAQVLFFLVIMVSFANYLVGTLIPPSEDKASKGFFSYRADIFVQNLVPDWRGPDGTFFGMFSIFFPSATGILAGANISGDLKDPAIAIPKGTLMAIFWTTISYLAISATIGSCVVRDASGVLNDTVTPGWGACEGLACSYGWNFTECTQQHSCHYGLINYYQTMSMVSGFAPLITAGIFGATLSSALACLVSAAKVFQCLCEDQLYPLIGFFGKGYGKNKEPVRGYLLAYAIAVAFIIIAELNTIAPIISNFFLCSYALINFSCFHASITNSPGWRPSFQYYNKWAALFGAIISVVIMFLLTWWAALIAIGVVLFLLLYVIYKKPEVNWGSSVQAGSYNLALSYSVGLNEVEDHIKNYRPQCLVLTGPPNFRPALVDFVGTFTRNLSLMICGHVLIGPHKQRMPELQLIANGHTKWLNKRKIKAFYSDVIAEDLRRGVQILMQAAGLGRMKPNILVVGFKKNWQSAHPATVEDYIGILHDAFDFNYGVCVMRMREGLNVSKMMQAHINPVFDPAEDGKEASARVDPKALVKEEQATTIFQSEQGKKTIDIYWLFDDGGLTLLIPYLLGRKRRWSKCKIRVFVGGQINRMDQERKAIISLLSKFRLGFHEVHILPDINQNPRAEHTKRFEDMIAPFRLNDGFKDEATVNEMRRDCPWKISDEEITKNRVKSLRQVRLNEIVLDYSRDAALIVITLPIGRKGKCPSSLYMAWLETLSQDLRPPVILIRGNQENVLTFYCQ
modifications: N-acetylglucosamine on Asn406 and Asn426; disulfide bonds Cys416-Cys421 and Cys430-Cys436
notes: human NCC (SLC12A3), cloned from HEK293 cDNA; an isoform that, compared with UniProt P55017-1, carries the naturally occurring A264G and lacks Gln95; residue numbers count on P55017-1; The atomic model holds residues 137-605 (TMD) and 616-1020 (CTD, docked as a rigid body from a SWISS-MODEL prediction); No cleavage of the tags is told; also called Na+-Cl- cotransporter; SLC12A3; not shown: FLAG, …
  stoichiometry N: 2

Source: article PMC9645730, “Cryo-EM structure of the human sodium-chloride cotransporter NCC” (Science Advances, 2022)
